# Source: paper PMC11132685
# Tests used:
# Assay in all cases: SEC-MALS; purified NACHOs; oligomeric state; conditions not given
# [1] = molecular target: tetrabrachion-stabilised recombinant N2 NA (NACHO) of A/HATAY/4990/2016 (not stated | influenza A virus (H3N2) A/HATAY/4990/2016)
# [2] = molecular target: tetrabrachion-stabilised recombinant N2 NA (NACHO) of A/ANKARA/2396/2015 (not stated | influenza A virus (H3N2) A/ANKARA/2396/2015)
# [3] = molecular target: tetrabrachion-stabilised recombinant N2 NA (NACHO) of A/VICTORIA/361/2011 (not stated | influenza A virus (H3N2) A/VICTORIA/361/2011)
# [4] = molecular target: tetrabrachion-stabilised recombinant N2 NA (NACHO) of A/CATALONIA/9503S/2017 (not stated | influenza A virus (H3N2) A/CATALONIA/9503S/2017)
# [5] = molecular target: tetrabrachion-stabilised recombinant N2 NA (NACHO) of A/SINGAPORE/INFIMH160019/2016 (not stated | influenza A virus (H3N2) A/SINGAPORE/INFIMH160019/2016)
# [6] = molecular target: tetrabrachion-stabilised recombinant N2 NA (NACHO) of A/TEXAS/50/2012 (not stated | influenza A virus (H3N2) A/TEXAS/50/2012)
# [7] = molecular target: tetrabrachion-stabilised recombinant N2 NA (NACHO) of A/PARIS/2379/2014 (not stated | influenza A virus (H3N2) A/PARIS/2379/2014)
# [8] = molecular target: tetrabrachion-stabilised recombinant N2 NA (NACHO) of A/BRISBANE/273/2016 (not stated | influenza A virus (H3N2) A/BRISBANE/273/2016)
# [9] = molecular target: tetrabrachion-stabilised recombinant N2 NA (NACHO) of A/STOCKHOLM/14/2012 (not stated | influenza A virus (H3N2) A/STOCKHOLM/14/2012)
# [10] = molecular target: tetrabrachion-stabilised recombinant N2 NA (NACHO) of A/HONGKONG/4801/2014 (not stated | influenza A virus (H3N2) A/HONGKONG/4801/2014)
substance,measurement,setting,value
tetrabrachion-stabilised recombinant N2 NA (NACHO) of A/HATAY/4990/2016 (enzyme),stoichiometry N,[1],4
tetrabrachion-stabilised recombinant N2 NA (NACHO) of A/ANKARA/2396/2015 (enzyme),stoichiometry N,[2],4
tetrabrachion-stabilised recombinant N2 NA (NACHO) of A/VICTORIA/361/2011 (enzyme),stoichiometry N,[3],4
tetrabrachion-stabilised recombinant N2 NA (NACHO) of A/CATALONIA/9503S/2017 (enzyme),stoichiometry N,[4],4
tetrabrachion-stabilised recombinant N2 NA (NACHO) of A/SINGAPORE/INFIMH160019/2016 (enzyme),stoichiometry N,[5],4
tetrabrachion-stabilised recombinant N2 NA (NACHO) of A/TEXAS/50/2012 (enzyme),stoichiometry N,[6],4
tetrabrachion-stabilised recombinant N2 NA (NACHO) of A/PARIS/2379/2014 (enzyme),stoichiometry N,[7],4
tetrabrachion-stabilised recombinant N2 NA (NACHO) of A/BRISBANE/273/2016 (enzyme),stoichiometry N,[8],4
tetrabrachion-stabilised recombinant N2 NA (NACHO) of A/STOCKHOLM/14/2012 (enzyme),stoichiometry N,[9],4
tetrabrachion-stabilised recombinant N2 NA (NACHO) of A/HONGKONG/4801/2014 (enzyme),stoichiometry N,[10],4
